pKd: −log10 of the molar value.
Assays:
[1] = biological target: Q61L Rac1·[3H]GTP (UniProt P63000); test: scintillation proximity assay (competition); competitor titrated into 30 nM [3H]GTP·Rac1 or [3H]GTP·Cdc42 and 30 nM GST-p50 RhoGAP immobilised on fluoromicrospheres via an anti-GST antibody; partial competition model for RLIP76 GAP and didomain, full competition for GAP insert and free p50 RhoGAP
[2] = biological target: Q61L Cdc42·[3H]GTP (UniProt P60953); test: as above
[3] = biological target: GST-p50 RhoGAP; test: scintillation proximity assay (direct); GST-p50 RhoGAP on SPA beads; [3H]GTP·Cdc42 or [3H]GTP·Rac1 in solution; values used as fixed Kd in the competition fits
[4] = biological target: Cdc42 (Homo sapiens) (UniProt P60953); details: cited from earlier work
[5] = biological target: Rac1 (Homo sapiens) (UniProt P63000); details: cited from earlier work

Sequence of Q61L Cdc42·[3H]GTP (P60953 whole entry Q61L): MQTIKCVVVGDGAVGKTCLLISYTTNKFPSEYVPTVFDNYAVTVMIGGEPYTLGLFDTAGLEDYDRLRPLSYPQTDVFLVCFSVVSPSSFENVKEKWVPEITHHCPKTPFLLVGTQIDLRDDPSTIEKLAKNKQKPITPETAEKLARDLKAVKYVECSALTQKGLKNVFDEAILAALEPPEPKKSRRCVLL
Sequence of Cdc42 (Homo sapiens) (P60953 1-188): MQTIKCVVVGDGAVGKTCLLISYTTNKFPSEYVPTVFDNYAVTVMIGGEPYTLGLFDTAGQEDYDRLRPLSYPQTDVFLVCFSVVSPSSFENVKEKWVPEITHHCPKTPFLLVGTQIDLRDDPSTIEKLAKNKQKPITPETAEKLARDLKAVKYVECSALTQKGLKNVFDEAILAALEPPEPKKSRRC

| Substance | pKd [1] | pKd [2] | pKd [3] | pKd [4] | pKd [5] |
| --- | --- | --- | --- | --- | --- |
| His-RLIP76 GAP domain (residues 184-380) (from UniProt Q15311 184-380) (domain or fragment) | 5.77 | 5.21 | – | – | – |
| His-RLIP76 GAP-GBD didomain (residues 184-446) (from UniProt Q15311 184-446) (domain or fragment) | 5.63 | 5.25 | – | – | – |
| untagged p50 RhoGAP (domain or fragment) | 6.82 | 6.61 | – | – | – |
| Q61L Cdc42·[3H]GTP (from UniProt P60953 1-191) (natural protein) | – | – | 7.10 | – | – |
| p50 RhoGAP (from UniProt Q07960) | – | – | – | 7.62 | 7.74 |

Source: PMC3852207
